According to patent US20040138156A1, “Therapeutic regulation of deoxyribonuclease-1-like-3 activity” (priority 2002, published 2004):
Where a chain is given by its changes, count along the chain named. Names may count otherwise. “Also recorded” adds a separate entry of the source. Read-outs that look alike come from different tables or passages of the source.

B1: 89I: Murine D1L3 variant of NZ and MRL strains, isoleucine for threonine at residue 89 (protein)
chain: LRLCSFNVRSFGASKKENHEAMDIIVKIIKRCDLILLMEIKDSSNNICPMLMEKLNGNSRRSTIYNYVISSRLGRNTYKEQYAFVYKEKLVSVKTKYHYHDYQDGDTDVFSREPFVVWFHSPFTAVKDFVIVPLHTTPETSVKEIDELVDVYTDVRSQWKTENFIFMGDFNAGCSYVPKKAWQNIRLRTDPKFVWLIGDQEDTTVKKSTSCAYDRIVLCGQEIVNSVVPRSSGVFDFQKAYDLSEEEALDVSDHFPVEFKLQSSRAFTNNRKSVSLKKRKKGNRS
B2: N196K-D3: Murine D1L3 with conserved asparagine 196 changed to lysine; inactive nuclease (protein)
chain: B1 chain with I64T, N171K
B3: D3DCT: Murine D1L3 truncated by a stop codon at Ser-289, lacking the basic C-terminus (289-310) (protein)
chain: LRLCSFNVRSFGASKKENHEAMDIIVKIIKRCDLILLMEIKDSSNNICPMLMEKLNGNSRRSTTYNYVISSRLGRNTYKEQYAFVYKEKLVSVKTKYHYHDYQDGDTDVFSREPFVVWFHSPFTAVKDFVIVPLHTTPETSVKEIDELVDVYTDVRSQWKTENFIFMGDFNAGCSYVPKKAWQNIRLRTDPKFVWLIGDQEDTTVKKSTSCAYDRIVLCGQEIVNSVVPRSSGVFDFQKAYDLSEEEALDVSDHFPVEFKLQS
B4: Y261 C: Human DNASE1L3 with Tyr>Cys at aa 261, HA-tagged, expressed in HeLa (protein, UniProt Q13609 21-305, looked up, variant Y261C)
Deoxyribonuclease gamma: MRICSFNVRSFGESKQEDKNAMDVIVKVIKRCDIILVMEIKDSNNRICPILMEKLNRNSRRGITYNYVISSRLGRNTYKEQYAFLYKEKLVSVKRSYHYHDYQDGDADVFSREPFVVWFQSPHTAVKDFVIIPLHTTPETSVKEIDELVEVYTDVKHRWKAENFIFMGDFNAGCSYVPKKAWKNIRLRTDPRFVWLIGDQEDTTVKKSTNCAYDRIVLRGQEIVSSVVPKSNSVFDFQKACKLTEEEALDVSDHFPVEFKLQSSRAFTNSKKSVTLRKKTKSKRS
modifications: HA tag
notes: Human DNASE1L3 with Tyr>Cys at aa 261, HA-tagged, expressed in HeLa
B5: N191K: Human D1L3 with N191K mutation, expressed as GST fusion in E. coli (protein)
chain: B4 Deoxyribonuclease gamma with N171K, C241Y

Tests used:
DNA = assay: DNA-SDS zymogram of nuclease activity; assay type: biochemical
Description: (§1) Zymograms are in-gel renaturation assays performed by SDS-PAGE through a gel impregnated with 200 µg/ml DNA and ethidium bromide, eluting away SDS with repeated washes in 25 mM Tris-HCl pH 7.5, then incubating for 12-16 hours at 37° C. in 25 mM Tris-HCl pH 7.5 with 10 mM Ca^+2/Mg^+2 buffer. Activity is measured as dark “bands” of DNA digestion (Rosenthal et al., (1977) Anal. Biochem. 80, 76-90) and quantified using scanned images using NIH Image. Photographed RDA results were scanned 600 dpi Tiff images, and activity was measured as pixel area times density of traced zones of clearing (n=3 for each zone). Student's T-test was used to compare paired results. Nuclease activity ratios were obtained by comparing intra-plate results.
Prokaryotic Expression and GST Purification. Human D1L3-GST expression was performed by growing transformed BL21 Cells (Stratagene) at log phase were induced in 50 mg/ml IPTG for 5-7 hours at 32°. Bacterial pellets were lysed in 1×SDS-PAGE buffer and loaded on SDS-12% PAGE.

free DNA = assay: Radial diffusion assay (RDA) of nuclease activity against free DNA in conditioned media; assay type: biochemical; details: for RDA nuclease activity of conditioned media (in words): media conditioned by transfected HeLa cells
Description: (§2) Transfection Reagents and Resistance Assays. Lipofection of respective pcDNA3.1-D1 or -D3 ([…] purified with Promega Wizard Plus DNA system) was performed independently into 1-2 million HeLa cells, which produce a low background of secreted nuclease activity, when grown in DMEM with 10% FCS (LifeTech) in 6 well culture plates (Becton-Dickinson). […] Media of the transfected cells were conditioned for 36-48 hours and served as source of the respective enzymes. Nuclease activity in conditioned supernatant was measured by RDAs, zymograms and by testing activity against supercoiled pBluescript (Stratagene).
Nuclease Assays. Nuclease activity against “naked” or free DNA in CM was quantified by densitometry of RDAs. For assays of media by murine cells, RDAs were performed using conditioned media, after 36 hour incubation of equal numbers of target cell population. Each conditioned media was sampled in triplicate. RDAs for all four mice were performed on a single dish. For RDAs, 2-5 ul of conditioned supernatant was dotted on 100 mm dishes containing 2% agarose, 250 ug/ml DNA, 0.001% EtBr, 0.5% filtered milk, 10 mM Ca^+2/MgCl2; and 12.5 ug/ml kanamycin. Multiple observations were generated for every sample obtained. After 24 hours of 37° incubation, plates are photographed under UV transillumination; and scanned photos were analyzed with NIH image. For RDAs, the activity was quantified as the product of mean density and area (traced on image) of zones of clearing. For observations of serum/urine, 2-5 ul of serum were dotted on agarose plates.
as §1

HeLa cells = assay: BT assay: liposomal N1-eGFP transfection of HeLa cells in DNASE-conditioned media, GFP immunoblot; assay type: cell-based; details: for BT activity / GFP expression or transfection efficiency in cells exposed to undiluted conditioned media: FuGENE-6, anti-GFP immunoblot
Description: In the main assay, an eukaryotic marker such as green fluorescent protein (GFP) expression plasmid complexed with a lipid reagent is transfected into HeLa cells incubated in control media, D1L3-conditioned media, or D1-conditioned media (FIG. 4). The assay is not limited to the use of GFP as a marker, but could use any of many expressed biomarkers encoded by nucleotides that can be assayed either immunochemistry, fluorescent detection, or enzymatic detectection, and these include but are not circumscribed to luciferase, chloramphenicol acetyl-transferase, antibiotic or chemical resistance genes, Beta-galactosidase, FLAG-, myc-hemaglutinnin-, or other epitope tagged molecules, as well as other markers of gene or nucleotide transduction. The endpoint of the assay is the detection of a synthesized protein, but could easily have been the detection of a transcribed gene product, since the assay ultimately measures the ability of D1L3 added the media/milieu overlaying the cells to block the ultimate association of an expressible plasmid with the transcriptional machinery.
as §2
To test for the ability of the nucleases to block transfection, the media in individual wells of naive HeLa cells were replaced with conditioned media, and cells transfected with […] of N1-eGFP plasmid (Clontech) using various transfection reagents (FIG. 11) and their respective protocols. GFP expression by immunoblot directly correlated with transfection efficiency in present experiments. Thus, transfection efficiency was compared by densitometric analysis of GFP immunoblots.
GFP expression was also examined by fluorescent microscopy using a FITC filter. For microscopy, cells were fixed for 5 minutes in 4% paraformaldehyde dissolved into 1% PBS.
Antibody Reagents and Immunoblotting. After 24-36 hours, cells transfected with N1-eGFP were lysed in SDS-buffer and immunoblotted for expression with anti-GFP at 1:5000 dilution (Clontech). To confirm nearly equal protein loading per lane, anti-β-actin monoclonal antibody at 1:7,000 dilution (Sigma) were prepared. For immunoblots, […] protein was eletrophoretically separated by 12% SDS-PAGE gel, followed by electrotransfer to Immobilon-P membranes (Millipore) for expression studies. Immunoblotting was performed using ECL detection (Amersham).
Transfection efficiency was compared, wherever possible, by pixel densitometry of the scanned images using Scion Image 4.02 software.

Molecule	BT activity / GFP expression or transfection efficiency in cells exposed to undiluted conditioned media (HeLa cells)	nuclease activity by zymogram (in words) (DNA)	RDA nuclease activity of conditioned media (in words) (free DNA)	other results
B1	saturated BT activity	–	–	zymogram nuclease activity relative to 89T-transfected cells (DNA; HeLa-expressed, normalized to immunoblotted D1L3 levels, n=16): 44%; decreased zymogram activity relative to protein levels (DNA; versus 89T, GST fusions and HeLa-expressed enzymes): ~50%; RDA-nuclease activity relative to the 89T enzyme (free DNA; in vitro): about half; defect in BT activity (HeLa cells; normalized to immunoblotted D3 protein levels, versus 89T, n=6): ~8 fold; GFP transfection in ten-fold diluted conditioned media (HeLa cells; ten-fold (five and ten fold) dilution of conditioned media): liposomal gene transfection is possible; also recorded: shows transfection
B2	did not differ significantly from controls; also recorded: incapable of providing a barrier to transfection	no nuclease activity above background	Nearly no clearing; also recorded: negligible background RDA activity; also recorded: no nuclease activity above background	–
B3	did not differ significantly from controls; also recorded: no significant decrease	–	greater RDA activity than D3	RDA nuclease activity of conditioned media (in words) (free DNA; listed as D3 pCT): slightly increased nuclease activity; BT activity / GFP expression or transfection efficiency in cells exposed to undiluted conditioned media (HeLa cells; listed as D3 ρCT): unaffected
B4	complete loss of function	complete loss of function	complete loss of function	nuclease activity by zymogram (in words) (DNA; listed as 261 C): no activity; RDA nuclease activity of conditioned media (in words) (free DNA; listed as 261 C): only faint, if any, activity; BT activity / GFP expression or transfection efficiency in cells exposed to undiluted conditioned media (HeLa cells; listed as 261 C): absence of barrier activity
B5	–	no detectable nuclease activity	–	–
